The text below walks through data of the DeepSol protein solubility set.

The data set can be described thus: soluble on expression in E. coli; label from the status in PepcDB or PDB records.
For the sequence “MGSDKIHHHHHHMTKKKIGIGFGTWAWGNKLVWDYKAETDDILLKKTFFDAINGGLDLIDSADSYGTGSLFGQSEKLIGDFLEELPKRKLKKVTIATKLAPFPWRIGRNGLDNAFQESNQRLKGNMTRVQLHWSTYRYAPWQEEQLLNGLGDLYEEGLIKEIGLSNTGPKRLNFLFQKLKKRGIKIKSIQMQLSLLTKPSLEDENIKIICDENEIEYLAYSPLGLGILTVPPNQSPKPTTFLRKSLYQRILPKTIELRTLLTHIGKKYSASQAEVALNWVRSHGAKPIVGIRNPNQAKDAISALNWSLTKSEKQKLDFCRNACLANMPLNPFTSP”, the “soluble on expression in E. coli” value was “not soluble”.

Regarding “MSFFTKEQQPKENCPPITVEKARQLFEFNTNHLSLSDYHHQTVLKTSKQLVAQHLMPNATDNLSQHFLMNYKANNNYLGFQASIVDFFTDSAVANFSSSYVYESQEKIIRLPKPTKISTALSTCIIKRRSHRQFSDRQMPLQDLSNILYYACGVSSQASIRDGASDKITLRNCASGGGLYPIHLVFYARNISKLIDGFYEYLPYQHALRCYRHSSEENVRDFAEYGAINAENCNIIIIYVYHYMKNTRKYGNQATAYAFIESGEIAQNIQLTATALTYGSIDIGGYNKEYLQELLDLDGLGEHVIHMTLVGTKESQ”, the “soluble on expression in E. coli” value is “not soluble”.

Turning to “MDSLKEAEIREVFREFDKNGDGRITRQELEVALLQLGEKASNSKIETMIEQADLDGNGCIDIDEFLNVLRRQICDPKEERELRDVFNVFDKNGDGVISIDDLIFVMCQLGEKLTETEAKEMIKQGDLDHDGMIDFQEFVNIIKGQ”, the “soluble on expression in E. coli” value is recorded as “soluble”.

Regarding “MLPQRLKKAITDNPKKLGNLIDLVNLPSTLRNFVGQSQISRLGCFMRVWSYIKTNNLQDPKNKNVVICDEKLKSILLGKQRVELVDLPSLIKLHFPKEQKKNSQKI”, the “soluble on expression in E. coli” value is “not soluble”.

On to “MGSDKIHHHHHHMTYREYKEPATRAGGIIELPHRTDANRFLASLGVAERATLASHLQLVHVKSGQVLCEPGMALEHVYLPVTTVISIQYASSDGMTLEIAEIGNEGIVSPQLVGTDGASPCRVITCRDGFSYRLGARVLSNLLEESAQTRQAIFRCTHLLMAQAKQISFCSRHHVLKNQLCRWFLLAYDRSRSVEIQVTHSMLAQMLGVRRETVTDAAGDIQKMGLIRQYRSSIILVDLPGLDAQSCGCHAIIREEMKKIQAAPTSASGTLTELRS”, for which the “soluble on expression in E. coli” value is listed as “not soluble”.

“GSHMSDGLPNKKRKRRVLFTKAQTYELERRFRQQRYLSAPEREHLTSLIRLTPTQVKIWFQNHRYKTKRAQNEKGYEGHP”: the “soluble on expression in E. coli” value is on record as “soluble”.

“MGSDKIHHHHHHMSAIHIKYPALTFKAGQRALRHIRERGLQAADVGVLPGAAGGPKPLGIQGLDLALFGEWLPSAPRQRALIGASIGAWRFASACLDDPVAGIRRLGELYTEQDFAKGVTPAEISRSCQRMLDDLLEGRDGQLLANPHYRLNILVVKSHGQLAHDHRGRLGLGLGSVVASNLLGRSRLARHFERIILHDGRAAPPLDTLTDFPSRYLPLDLTNLRHALLASGSIPMVMQGVKDIPGAGAGTYRDGGLLDYHLDLPYRGDDLVLYPHFTDKVVPGWFDKALPWRKGDATRLQNVLLMTPSPQYLAALPYGKLPDRNDFKRFMGDAPGRKRYWYKAIAESQRLGDELLELTATGRLHERLQAL”: the “soluble on expression in E. coli” value is recorded as “not soluble”.

As to “MKFLNVLIVVEDIEKSKKFYYDVLGLKVICDFGENVVLEGNISLQEKKLWLEFINKSDSEVKFNGNDAELYFEEDNFDTFVERLSTMKDIDYVHLAIEHRWGQRAIRFYDLDGHIIEVGETMSSVCRRFLDSGLSIDEVAKRMDVTVEYIESVLELEHHHHHH”, the “soluble on expression in E. coli” value was “soluble”.

With “MGSDKIHHHHHHMNTANPEQALAMSQAKLLCDTMSTLAESPVWDERRQVLFWCDILGKTVRSAALEPGQYREWPFPHTVSSLGLRENGDLVVACGMDIVILDPDSGRTRLLHSIPAPEGIPCRLNDGRVGPDGAFWVGTMHNVPLSEMKPYGELWRITATSAKRMQTGLTCPNGLAFSPDGSIMWQSDSVQKWIRRRNFYRVNGLFDEGVLVAQMTEETGRPDGGCLDSSGTYYSAGVSAGMLNVFAEDGGKQTAAIKMPVPHPTMPCFGGPDFSTLFVTSHRHNMSAERLEQAPFSGGVWMIPTQTKGFAPFRFEG”, the “soluble on expression in E. coli” value is “not soluble”.

Turning to “GTDQYTLLANRVQNAVEARQSATEAERRRHRLEQILKTVPSCVVQLDRDGQFVFANQRAIDVLGLSQSELKDRLYNDPEWEIRDLDGHPIPDAELPFRQVLETGQPLSDARHTIHWPDGTEKVLSVNGAPLFDDD”, the “soluble on expression in E. coli” value is recorded as “not soluble”.

Regarding “MQGQGDLFESTDWQEVRQGKLFYQPNFLSQQEADTYFSTLMSTLPWQQERITIFGKSVLQPRLQTWHGDAPYTYSGLTMAPHPWTSELSSLKARCESLANTPFNSVLANLYRDGQDSMGWHQDNEPELGRNPVIASLNLGDTRRFVLRNLHCKTQIEYELGHGALLIMAGELQHHWRHCVPKTAKPKGERINLTFRHILNYLEHHHHHH”, the “soluble on expression in E. coli” value was “soluble”.

Turning to “MGSDKIHHHHHHMEIRPEMFGQARAGAAWPDFGKPHVLRCDTGRSALKLALQCWAGRAGRDFTVWLPHYVCHSVAQAVRQAGHALAYYGHRPSEQIFSPPPTPQAGDLVLLVHYFGLRNRAALDWLSAHATRDFAVLEDCVQSPYTAGVGRLADFAISSLRKWWPTPDGATLASVYALDGLDLAASDEAFISQRMAAKQLRARGIGEERYLQWIDESESRLDDVVPRQASWLAASLLGEADIDVAMAARRENWFALAQGLAGLRGVAPLFRELAVDEIPLAYPVVVSATNRQKLRAALRDRRVFCPVHWDLESDAPEADTLLSARILSIPLDQRYAPADMRKVASMIGEFIAEELN”, the “soluble on expression in E. coli” value is given as “not soluble”.

In the case of “MSNEIYTAITIGPICKTLDKARSVKSFWTASYLFSWIMRELLERLPKEERPEGSFEVLSPHRDGKDVPEETSKKVGLFPDRLFAKGELEEEKLQEIKGKIFIELAEKFKNAFQDEKDGITRKIDTESDPKRKRELEEIQSRYSNAALKGEDIRKYLENYLSISCITVELSSDCNILEQLNSYLDTQELFNKASIQTDEDYMELFIEAPNNPFLKAYSQDRAFPSTSEIAVSGWEQDPPKDENGEVEYTQLTSKPGFRNCYKYLAVIKADGDGFGTYIKELKVDEEKEIKENGEKENELSRFTKSFFEFSVEVANELIQKTKAIPVYIGGDDLFLFAPVLEGNVEKDVFNLIKEIDDLFIQKEIGEGLSMSYGVSIFYYKSPMSEAIDIADSMLRKAKEEKEEKEKKKDTVAISIQKHSGQKIEFLLPCKHSTDKCKQETGLYKKATELIRAFKEDDSMLNSLIYWIEDMYETIFTDEVTLYQERINAVFDNFFDEEIHKENEVFFDLLKKFIHSMHHSEDTPRKLKDKKKLLHGILRYCQFVTAKKEK”, the “soluble on expression in E. coli” value was “not soluble”.

As to “MSLNNLEKASRLIDEENNYYARSARINYYDLVINHAHGATLIDVDGNEYIDLLASASAINVGHTNERVVKAISRQAQKLIHYTPAYFHHVPGIELSKRLAELAPGNSPKMVSFGNSGSDANDAIIKFSRAYTSRQYIVSYMGSYHGSNYGSQSLSGTSLNMTRKIGPMLPGVVHVPYPDLYRRYAGETEHDVAIRYFNAFKAPFESFLPADETACVLVEPIQGDGGIVKAPEEYMQLVYKFCHDNGILFAVDEVNQGLGRTGKMWGIQQYKDIEPDLMSVGKSLASGMPLSAVVGKKDIMQSLDAPAHIFTTSGNPVCAAASLATLNVIRDDHLVEKSAKDGEYAKQRFLEMQRHHPIIGDVRMWGLNGGIELVKDPKTKEAENDAATKVIYYAFAHGVVIITLAGNILRFQPPLVISHKQLDKALQVLDDAFTAVEQNKVEVPKDTGKIGWEGHHHHHH”, the “soluble on expression in E. coli” value is reported as “not soluble”.

Consider “MGSDKIHHHHHHMSEALNVDIQEIAKFEKMAATWWDPDGEFKPLHQLNPLRLNYIDQTSGGLFGKKVLDVGCGGGILSESMARLGANVTGIDMGNEPLEVARLHALETGVSLNYERCTAEEHREVNREAYDVVTCMEMLEHVPDPLSVIAACCDMVKPGGYVFFSTINRNLRSYVETILGAEYLLKMLPVGTHDHGKFIRPSELIAMVDQTELLCKDATGVTYNPITGTFRYTSSVEVNYMIATVKPLE”, for which the “soluble on expression in E. coli” value is “not soluble”.

Take “MILIFEEHRMQLSSEQCDFFFTNGYLVINNFFSESVCDLLKQRIETLLENNQAEIPKTIFSTQTNEHAKKQYFLDSGDKIHYFFEPGAFDEAGDWLRPFNQSINKIGHALHELDPVFRQYSRDDRIKKIAHQLGLKTLGLVQSMYIFKQPGIGAEVLCHQDSTYIFGEDSDALGFWFAIEDATLENGCLEVIPSPCTTPLKQRMFRRENEIYFENFDSSPWPEENSVPLPVKKGALIILHGRVPHKSQANFSNQSRHAYTLHLVDISLPYPEKNWLQWPNGIPCLLEHHHHHH”: the “soluble on expression in E. coli” value is recorded as “soluble”.

For “SKDELGEVIHAFNRMMTKLRKREKQRQHSLATLEQKRAFSEEVIESIQYALVITDNLGTIIHSNAATQHIFQKTPEALENANIRDLIKTKMPNELSQILSRCLECDDIHLQNIDNEQQLSLTTRRLSNHGYLLFAIQD”, the “soluble on expression in E. coli” value is recorded as “not soluble”.

In the case of “MARHVFLPPLSVHRHRPHPLGVCGFESFQTLHPRKRAARPDSRPLYELCRHTCLQDFPKIRHPLCRHGTQQHHYARFGAPAPMAAYEKCGGTRRRTSRRQPPFRTRPATQIRLRMAVPPPTYWAEYSTDRLNKEKKNNKPHFVFCTVSHLRRLKGHDVLLTAFARALAQCPQLRLNIGGSGQEEQRLKQQAADLGITHAVTFLGALQPEAVLDLMRNSDAFVLASRTETFGVVYIEALSQGLPVIATRCGGAESIVSDGNGYLVPVDDDDALADALIKMCEHHSDFEPARLRENCLNEFGENAVIGRLIGIFRQAIAEYGKKIPVKYSGLTKIRTRRRSRRQYK”, the “soluble on expression in E. coli” value is listed as “not soluble”.

In the case of “MAHHHHHHMWRRAACQAVTSRFFRPAVAASTASSSSALRESCRTGIIIGNPKQGMIDPIHVSWTDIAGSDTTPGARLAAGRVLAMLDMCAARTSQKAIDHQDCLTHERYLTCTVGVTNTMFSSPILHGDAVRLDGRLVCCGSSSMGIYIRFYRQSPSTRTETPAGHSFFTMVAITPDLKAAKVVPAIELTDPLDIELHNHYVKVRKLQEENKKNTAERLKRTLTTEEVQCSINQQKPIHARINSTRVEANRIFFTSCMNNNNTVFGGELMAWMEQHAVHCGRMFTGNRYVFTIGMHSVAFPEPVFATDWVTLEATVIYVRNTTMEVDVVLKAERKDAGTVITNRASFVLINNDDIGRKCAIPIGLELNGATQEELQQFMEARVRYHCSVARRDDFHASNLCTGTTKL”, the “soluble on expression in E. coli” value was “not soluble”.

With “MKEKSIEDIVFEKFQPYINWSIDKLCEHFSINKGEKGLNYRIASAILNLKGKTTKSKPFPEVEEFEKSSIVVKTVHFNKKNVNKESMSFGAFKFEELANEEWEDSEGYPSAQWRNFLLETRFLFFVVKEDEDGVDIFKGIKFFSMPEEDINGPVKRMWDDTVKKLKEGVTLEAVPDKSTKDGWRIKNNFVDKSDDLICHVRPHTNNRDYRGGSNADKLPKKINWINRPDSDDYSDEWMTKQSFWINNDYIKKQVEDLL”, the “soluble on expression in E. coli” value is reported as “soluble”.

“MTRAERKRQHINHALSIGQKRETGLDDITFVHVSLPDLALEQVDISTKIGELSSSSPIFINAMTGGGGKLTYEINKSLARAASQAGIPLAVGSQMSALKDPSERLSYEIVRKENPNGLIFANLGSEATAAQAKEAVEMIGANALQIHLNVIQEIVMPEGDRSFSGALKRIEQICSRVSVPVIVKEVGFGMSKASAGKLYEAGAAAVDIGGYGGTNFSKIENLRRQRQISFFNSWGISTAASLAEIRSEFPASTMIASGGLQDALDVAKAIALGASCTGMAGHFLKALTDSGEEGLLEEIQLILEELKLIMTVLGARTIADLQKAPLVIKGETHHWLTERGVNTSSYSVR”: the “soluble on expression in E. coli” value is “soluble”.

Consider “RMMEGAIAIADLTVGDVMVPRSQMVSLPVESDLQTITKQMVESGHSRFPVHGENKDEVLGILLAKDLLRGVSANHTITNVHELLRPVGMIPESKKLNVLLKEFRLSHNHMAIVVDEYGGVAGLVTIEDILEQIVGDID”, for which the “soluble on expression in E. coli” value is listed as “soluble”.
